In patent US20150087812A1 (Janssen / Centocor, published 2015):
Residue numbers refer to the chain shown, from its start.

B1: mAb ATXB3 (antibody, V domains shown)
VH: EVQLVQSGAEVKKPGESLKISCKGSGYSFTSYWIGWVRQMPGKGLEWMGIIYPGDSDTRYSPSFQGQVTISADKSISTAYLQWSSLKASDTAMYYCARPYGTFDYWGQGTLVTVSS
VL: EIVLTQSPATLSLSPGERATLSCRASQSVADSLAWYQQKPGQAPRLLIYKASNRATGIPARFSGSGSGTDFTLTISSLEPEDFAVYYCQQSNGWPRTFGQGTKVEIK
notes: Human IgG1/kappa from Fab F17
B2: mAb ATXB9 (antibody, V domains shown)
VH: QVQLVQSGAEVKKPGSSVKVSCKASGGTFSSYAISWVRQAPGQGLEWMGGISPYFGNANYAQKFQGRVTITADESTSTAYMELSSLRSEDTAVYYCARYGDFGGNVFTEFDYWGQGTLVTVSS
VL: EIVLTQSPGTLSLSPGERATLSCRASQSVNNSDLAWYQQKPGQAPRLLIYTASSRATGIPDRFSGSGSGTDFTLTISRLEPEDFAVYYCQQATTVPLTFGQGTKVEIK
notes: Human IgG1/kappa from Fab F89
B3: mAb ATXB6 (antibody, V domains shown)
VH: QVQLVQSGAEVKKPGSSVKVSCKASGGTFSSYAISWVRQAPGQGLEWMGGIIPIFGTANYAQKFQGRVTITADESTSTAYMELSSLRSEDTAVYYCARDLYIYGDLDYWGQGTLVTVSS
VL: DIQMTQSPSSLSASVGDRVTITCRASQSIGGWLNWYQQKPGKAPKLLIYTASSLQSGVPSRFSGSGSGTDFTLTISSLQPEDFATYYCQQSYTYPITFGQGTKVEIK
notes: Human IgG1/kappa from Fab F73
B4: mAb ATXB13 (antibody, V domains shown)
VH: B3 VH with L100F, Y101S, I102V, L106F
VL: B3 VL with G30A, G31K, T50A, T93S, Y94T, I96L
notes: Human IgG1/kappa from Fab F143
B5: mAb ATXB8 (antibody, V domains shown)
VH: B3 VH with L100S, Y101S, I102A, L106F
VL: B3 VL with G30D, T50A, T93S, Y94T, I96L
notes: Human IgG1/kappa from Fab F96
B6: mAb ATXB14 (antibody, V domains shown)
VH: B3 VH with T57N, A58T, L100I, Y101S, I102G
VL: B3 VL with G30D, T50A, T93S, Y94T, I96L
notes: Human IgG1/kappa from Fab F104
B7: mAb ATXB7 (antibody, V domains shown)
VH: QVQLVQSGAEVKKPGSSVKVSCKASGGTFSSYAISWVRQAPGQGLEWMGGIIPIFGTANYAQKFQGRVTITADESTSTAYMELSSLRSEDTAVYYCARPIGTGYYGFFDYWGQGTLVTVSS
VL: B3 VL with G30A, G31K, T50F, T93S, Y94T, I96L
B8: mAb ATXB18 (antibody, V domains shown)
VH: B3 VH with L100A, Y101S, I102T
VL: B3 VL with G30D, T50A, T93S, Y94T, I96L
notes: Human IgG1/kappa from Fab F97

Biological target: T1, recombinant human ATX beta isoform with N-terminal purification tag (human, UniProt Q13822 49-863)
Experiment: SPR Biacore 3000, His-ATX beta captured on anti-Penta-His, mAb as analyte, bivalent analyte model
Protocol: (§1) Affinity measurements using surface plasmon resonance (SPR) were performed using a Biacore 3000 optical biosensor (Biacore) for ATXB3, ATXB6, ATXB8, ATXB9, ATXB13, and ATXB14. A biosensor surface was prepared by coupling anti-Penta-His antibody (Qiagen, Cat No. 34660) to the carboxymethylated dextran surface of a CM-5 chip (Biacore, Cat No. BR-1000-14) using the manufacturer instructions for amine-coupling chemistry. Approximately 15,000 RU (response units) of anti-Penta-His antibody were immobilized in each of four flow cells. The kinetic experiments were performed at 25° C. in running buffer (PBS+0.01% P20+100 ug/ml BSA). Serial dilutions of anti-ATX mAbs (ATXB3, B6, B8, B9, B13, B14) from 900 nM to 0.412 nM were prepared in running buffer. About 80 RU of human ATX beta-His tagged proteins were captured on flow cell 2 of the sensor chip. Flow cell 1 was used as reference surface. Capture of ATX was followed by five minutes injection (association phase) of anti-ATX mAbs at 50 uL/min, followed by 15 minutes of buffer flow (dissociation phase). The chip surface was regenerated by 15 seconds injection of 100 mM H₃PO₄ (Sigma, Cat No. 7961) at 50 uL/min. The collected data were processed using BIAevaluation software, version 3.2 (Biacore). First, double reference subtraction of the data was performed by subtracting the curves generated by buffer injection from the reference-subtracted curves for analyte injections. Then kinetic analysis of the data was performed using the Bivalent Analyte binding model with global fitting. Kd1 (Kₒₙ) was calculated as intrinsic KD with minimum avidity. The result for each mAb was reported in the format of Ka1 (On-rate, Kₒₙ), Kd1 (Off-rate, Koff) and KD1 (Equilibrium dissociation constant). Affinity measurements for ATXB18 were performed on a Proteon XPR36 system (Bio-Rad), using a protocol similar to the one used on the Biacore platform.
The five mAbs with the lowest IC50 values in the inhibition assays as well as ATXB3, a non-neutralizing antibody, were tested for their affinity to the human ATX-beta isoform, as measured by surface plasmon resonance. Due to nonspecific binding of the ATX antigen to the chip surface, these experiments had to be conducted in the reverse format, with ATX immobilized on the chip surface (ligand) and our antibodies in solution (analyte).

Kd | koff | kon | Binder
0.715 nM | 0.000303 s⁻¹ | 212000 M⁻¹ s⁻¹ | B1
47.8 nM | 0.000322 s⁻¹ | 3370 M⁻¹ s⁻¹ | B2
0.329 nM | 0.000292 s⁻¹ | 444000 M⁻¹ s⁻¹ | B3
0.6 nM | 0.000329 s⁻¹ | 274000 M⁻¹ s⁻¹ | B4
1.77 nM | 0.000883 s⁻¹ | 249000 M⁻¹ s⁻¹ | B5
0.369 nM | 0.000583 s⁻¹ | 789000 M⁻¹ s⁻¹ | B6

Biological target: T1, recombinant human ATX beta isoform with …
Experiment: cell-based or functional assay

IC50, inhibition of LPC hydrolysis by human ATX beta (1.5 nM), coupled choline oxidation (Amplex Red) assay | Binder
14.5 nM | B2
1 nM | B3
158 nM | B7
1 nM | B4
0.7 nM | B5
0.8 nM | B6

Biological target: recombinant mouse ATX beta isoform (R&D Systems, Cat No. 6187-EN-010) (mouse, UniProt Q9R1E6 36-862)
Experiment: cell-based or functional assay

IC50, inhibition of LPC hydrolysis by mouse ATX, coupled choline oxidation (Amplex Red) assay | Binder
9.3 nM | B2
0.3 nM | B3
217 nM | B7
0.5 nM | B4
0.8 nM | B5
1.5 nM | B6

Biological target: T1, recombinant human ATX beta isoform with …
Experiment: SPR ProteOn XPR36, protocol similar to the Biacore one, bivalent analyte model
Protocol: as §1, with “Affinity measurements for ATXB18 were performed on a Proteon XPR36 system (Bio-Rad), using a protocol similar to the one used on the Biacore platform.” left out
The five mAbs with the lowest IC50 values in the inhibition assays as well as ATXB3, a non-neutralizing antibody, were tested for their affinity to the human ATX-beta isoform, as measured by surface plasmon resonance. […]

Kd | koff | kon | Binder
0.673 nM | 0.000614 s⁻¹ | 949000 M⁻¹ s⁻¹ | B8
